Test results from patent US20250313615A1 (ANNEXON, published 2025).

Target: T1, complement factor C1q (Homo sapiens, UniProt P02745 23-245; P02746 28-253; P02747 29-245)
T1 construct: also called soluble C1q
Experiment: in vivo, phase 1b interim analysis in four lupus nephritis patients; pharmacodynamic read-out

T1 sequence (P02745 23-245 limits assumed, chain 1 of 3): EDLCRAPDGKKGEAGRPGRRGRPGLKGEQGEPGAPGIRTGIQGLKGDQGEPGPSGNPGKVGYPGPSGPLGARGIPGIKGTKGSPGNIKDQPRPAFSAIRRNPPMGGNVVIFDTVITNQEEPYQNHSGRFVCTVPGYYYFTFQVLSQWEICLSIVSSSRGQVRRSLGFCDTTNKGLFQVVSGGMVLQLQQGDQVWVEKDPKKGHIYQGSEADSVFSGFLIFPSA
T1 sequence (P02746 28-253 limits assumed, chain 2 of 3): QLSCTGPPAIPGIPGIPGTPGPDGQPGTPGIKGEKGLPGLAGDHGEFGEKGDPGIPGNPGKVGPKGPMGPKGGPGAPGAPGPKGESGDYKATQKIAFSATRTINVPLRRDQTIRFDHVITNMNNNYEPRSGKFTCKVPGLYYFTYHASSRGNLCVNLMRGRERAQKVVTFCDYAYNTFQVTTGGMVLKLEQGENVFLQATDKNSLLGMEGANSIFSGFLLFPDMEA
T1 sequence (P02747 29-245 limits assumed, chain 3 of 3): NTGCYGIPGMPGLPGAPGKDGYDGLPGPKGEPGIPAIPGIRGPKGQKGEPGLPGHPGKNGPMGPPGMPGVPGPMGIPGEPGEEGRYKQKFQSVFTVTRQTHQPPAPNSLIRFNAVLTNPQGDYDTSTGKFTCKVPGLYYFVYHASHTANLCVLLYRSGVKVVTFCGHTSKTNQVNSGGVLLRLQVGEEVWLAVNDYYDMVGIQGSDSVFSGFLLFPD

B1: FabA (Fab)
heavy: QVQLVQSGAELKKPGASVKVSCKSSGYHFTSYWMHWVKQAPGQGLEWIGVIHPNSGSINYNEKFESRVTITVDKSTSTAYMELSSLRSEDTAVYYCAGERDSTEVLPMDYWGQGTTVTVSSASTKGPSVFPLAPSSKSTSGGTAALGCLVKDYFPEPVTVSWNSGALTSGVHTFPAVLQSSGLYSLSSVVTVPSSSLGTQTYICNVNHKPSNTKVDKKVEPKSCDKTHT
light: DVQITQSPSSLSASLGERATINCRASKSINKYLAWYQQKPGKAPKLLIYSGSTLQSGIPARFSGSGSGTDFTLTISSLEPEDFAMYYCQQHNEYPLTFGQGTKLEIKRTVAAPSVFIFPPSDEQLKSGTASVVCLLNNFYPREAKVQWKVDNALQSGNSQESVTEQDSKDSTYSLSSTLTLSKADYEKHKVYACEVTHQGLSSPVTKSFNRGEC
notes: also called anti-C1q Fab; anti-C1q antibody Fab fragment
binding result: binds
